The test addresses Full length mammalian HP1β (human or mouse (sequences identical)) (UniProt P83916). Put plainly: AUC.

Chain of Full length mammalian HP1β, P83916 1-185 (natural protein; other documents disagree on this pair) (P83916 whole entry): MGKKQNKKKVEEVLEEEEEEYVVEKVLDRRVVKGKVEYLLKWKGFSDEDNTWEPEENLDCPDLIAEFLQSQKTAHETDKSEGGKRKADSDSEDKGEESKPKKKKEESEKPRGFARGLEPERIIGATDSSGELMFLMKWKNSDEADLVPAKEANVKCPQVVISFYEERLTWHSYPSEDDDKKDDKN

With “Full length mammalian HP1β, P83916 1-185 (natural protein; other documents disagree on this pair)”, the Kd was 500 nM.

Values taken from paper PMC3154745.
